In the supplement of paper PMC6757056:
± gives the standard deviation of the averaged measurements.

B1: library; a variant is named by its letters at N, in order (parent)
chain: GCUGUCACCGAGAAACUGUGAAGUAUAUCUUAAACCUGGGCACUUAAAAGAUAUAUGGAGUUAGUAGUGCAACCUGCUCGGUCUGAUGAGUCCNNNNNNGGACGAAACAGC

Experiments:
cyclic di-GMP [1] = variants of: B1; assay: normalized RNA/DNA level without ligand (relative to sTRSVctl = 100) (log10 (% of sTRSVctl)); HEK293T; ligand: cyclic di-GMP (c-di-GMP-II aptamer); higher = less ribozyme self-cleavage, higher mRNA level; conditions: reporter: mCherry (pCS4076), ligand present: no
Procedure, shortened: (§1)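 HEK293T cells received ligand, where used, 1 h before being transfected with 4 µg per 6-well well of library plasmids encoding reporter-linked ribozyme switches. After 72 h, RNA was extracted with EDTA and sequenced. RNA level was derived from RNA reads per DNA read, normalized to a spiked-in non-cleaving sequence or the top sequences, then scaled and log-transformed. Values were ×100 then log10, the top set was 25 sequences, and the minimum was 100 DNA reads.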

cyclic di-GMP [2] = variants of: B1; assay: normalized RNA/DNA level with ligand (relative to sTRSVctl = 100) (log10 (% of sTRSVctl)); HEK293T; ligand: cyclic di-GMP (c-di-GMP-II aptamer); ligand concentration (+) RNA-Seq: 1 mM; higher = less ribozyme self-cleavage, higher mRNA level; conditions: reporter: mCherry (pCS4076), ligand present: yes
Procedure, shortened: as §1

| Variant | normalized RNA/DNA level without ligand (log10) (cyclic di-GMP [1]) | normalized RNA/DNA level with ligand (log10) (cyclic di-GMP [2]) |
| --- | --- | --- |
| CAUACA | 1.38 ± 0.11 | 1.58 ± 0.1 |
| CAGGGU | 1.673 ± 0.014 | 1.82 ± 0.096 |
| AAGGCU | 1.71 ± 0.088 | 1.83 ± 0.22 |
| CGAAUC | 1.6 ± 0.043 | 1.78 ± 0.11 |
| UACUUG | 1.734 ± 0.0022 | 1.89 ± 0.063 |
| AAUUGU | 1.66 ± 0.061 | 1.83 ± 0.075 |
| UACUCU | 1.73 ± 0.053 | 1.84 ± 0.07 |
| UGGAUC | 1.699 ± 0.0067 | 1.88 ± 0.097 |
| AGGCAU | 1.63 ± 0.018 | 1.83 ± 0.11 |
| CCUCCA | 1.68 ± 0.031 | 1.83 ± 0.088 |
| CGCUUG | 1.73 ± 0.043 | 1.88 ± 0.055 |
| CAUGGU | 1.648 ± 0.0024 | 1.77 ± 0.16 |
| AAGACU | 1.66 ± 0.019 | 1.84 ± 0.057 |
| UUGGUA | 1.45 ± 0.084 | 1.73 ± 0.11 |
| CAGGCA | 1.615 ± 0.0084 | 1.71 ± 0.13 |
| AUUGAU | 1.63 ± 0.029 | 1.79 ± 0.061 |
| AUUUAC | 1.733 ± 0.0013 | 1.88 ± 0.1 |
| CACCUC | 1.704 ± 0.014 | 1.87 ± 0.098 |
| CCGUGU | 1.66 ± 0.039 | 1.86 ± 0.095 |
| UCUCAG | 1.75 ± 0.073 | 1.89 ± 0.098 |
| CUGAAC | 1.603 ± 0.0055 | 1.77 ± 0.084 |
| AUGUAG | 1.59 ± 0.017 | 1.77 ± 0.11 |
| CUGACU | 1.52 ± 0.05 | 1.75 ± 0.11 |
| AGCGCC | 1.7734 ± 0.0015 | 1.91 ± 0.082 |

| Variant | normalized RNA/DNA level without ligand (log10) (cyclic di-GMP [1]) | normalized RNA/DNA level with ligand (log10) (cyclic di-GMP [2]) |
| --- | --- | --- |
| UUUUUU | 1.77 ± 0.056 | 1.88 ± 0.097 |
| AGGCGU | 1.609 ± 0.0044 | 1.76 ± 0.12 |
| GUGCUU | 1.71 ± 0.025 | 1.84 ± 0.14 |
| CACAGC | 1.729 ± 0.0089 | 1.84 ± 0.085 |
| CUCGAC | 1.714 ± 0.0032 | 1.85 ± 0.069 |
| ACCGGU | 1.531 ± 0.003 | 1.76 ± 0.08 |
| ACCGGG | 1.84 ± 0.027 | 1.91 ± 0.12 |
| UAUAAU | 1.66 ± 0.063 | 1.8 ± 0.099 |
| CUUGGG | 1.74 ± 0.031 | 1.88 ± 0.13 |
| UCUCUU | 1.74 ± 0.039 | 1.86 ± 0.089 |
| UCUGUU | 1.636 ± 0.0046 | 1.82 ± 0.12 |
| AAGCUU | 1.7 ± 0.022 | 1.84 ± 0.073 |
| GGCCUC | 1.742 ± 0.015 | 1.83 ± 0.11 |
| AUUCAA | 1.58 ± 0.032 | 1.77 ± 0.15 |
| AUACAC | 1.71 ± 0.02 | 1.82 ± 0.081 |
| GCGUUC | 1.34 ± 0.19 | 1.55 ± 0.13 |
| CAGGAG | 1.64 ± 0.091 | 1.79 ± 0.098 |
| CAGGAU | 1.64 ± 0.094 | 1.78 ± 0.068 |
| GGGAUC | 1.66 ± 0.064 | 1.77 ± 0.09 |
| ACAUGA | 1.3 ± 0.07 | 1.53 ± 0.13 |
| GCCUCA | 1.737 ± 0.0028 | 1.87 ± 0.068 |
| GGCUCC | 1.88 ± 0.022 | 1.96 ± 0.11 |
| UUGAGG | 1.79 ± 0.028 | 1.87 ± 0.14 |
| UUCACG | 1.803 ± 0.018 | 1.9 ± 0.09 |

| Variant | normalized RNA/DNA level without ligand (log10) (cyclic di-GMP [1]) | normalized RNA/DNA level with ligand (log10) (cyclic di-GMP [2]) |
| --- | --- | --- |
| CUUUUA | 1.42 ± 0.12 | 1.66 ± 0.07 |
| GCACCA | 1.586 ± 0.0036 | 1.75 ± 0.11 |
| UGAUUC | 1.71 ± 0.019 | 1.86 ± 0.08 |
| UGUGUA | 1.61 ± 0.045 | 1.74 ± 0.072 |
| UAAGCC | 1.78 ± 0.024 | 1.88 ± 0.091 |
| CCCGGA | 1.48 ± 0.075 | 1.72 ± 0.13 |
| CCCAAC | 1.61 ± 0.037 | 1.82 ± 0.086 |
| ACCAGG | 1.71 ± 0.037 | 1.77 ± 0.088 |
| GAUACU | 1.7 ± 0.025 | 1.82 ± 0.068 |
| GCGCGC | 1.64 ± 0.07 | 1.8 ± 0.11 |
| AACCCA | 1.621 ± 0.0091 | 1.81 ± 0.13 |
| CGUCGC | 1.76 ± 0.024 | 1.87 ± 0.16 |
| GUUUGU | 1.69 ± 0.022 | 1.84 ± 0.067 |
| CUCAGU | 1.75 ± 0.018 | 1.83 ± 0.07 |
| CUCAGG | 1.8 ± 0.037 | 1.87 ± 0.14 |
| UUCCCG | 1.85 ± 0.1 | 1.94 ± 0.13 |
| GAUUAU | 1.62 ± 0.022 | 1.77 ± 0.07 |
| UGCUCG | 1.77 ± 0.059 | 1.89 ± 0.16 |
| CGCGUU | 1.67 ± 0.021 | 1.86 ± 0.12 |
| AGCCGG | 1.765 ± 0.013 | 1.865 ± 0.018 |
| AGCCGU | 1.58 ± 0.048 | 1.77 ± 0.064 |
| AUAGCU | 1.68 ± 0.024 | 1.78 ± 0.069 |
| GCUUUA | 1.63 ± 0.023 | 1.83 ± 0.1 |
| ACGAAC | 1.53 ± 0.11 | 1.72 ± 0.067 |

| Variant | normalized RNA/DNA level without ligand (log10) (cyclic di-GMP [1]) | normalized RNA/DNA level with ligand (log10) (cyclic di-GMP [2]) |
| --- | --- | --- |
| CAGAGG | 1.64 ± 0.069 | 1.8 ± 0.046 |
| UUUCGU | 1.72 ± 0.025 | 1.86 ± 0.083 |
| UGUAAU | 1.679 ± 0.01 | 1.84 ± 0.14 |
| CCAACA | 1.53 ± 0.029 | 1.72 ± 0.13 |
| CAGCGA | 1.49 ± 0.1 | 1.7 ± 0.055 |
| GGGACA | 1.7 ± 0.042 | 1.75 ± 0.11 |
| CCAGAU | 1.65 ± 0.025 | 1.81 ± 0.12 |
| AUAGGC | 1.55 ± 0.023 | 1.76 ± 0.18 |
| GUCAUG | 1.61 ± 0.037 | 1.75 ± 0.11 |
| GUCAUU | 1.66 ± 0.061 | 1.81 ± 0.12 |
| AGGUAC | 1.67 ± 0.038 | 1.81 ± 0.077 |
| CCGAGG | 1.624 ± 0.0052 | 1.8 ± 0.071 |
| CUGCAC | 1.742 ± 0.0034 | 1.88 ± 0.1 |
| UUGCCC | 1.83 ± 0.081 | 1.84 ± 0.2 |
| CAAAGC | 1.717 ± 0.011 | 1.84 ± 0.091 |
| GCUACA | 1.583 ± 0.0028 | 1.79 ± 0.072 |
| ACAGGG | 1.5 ± 0.11 | 1.58 ± 0.15 |
| GAGGUG | 1.74 ± 0.049 | 1.84 ± 0.087 |
| GUCCGC | 1.84 ± 0.03 | 1.93 ± 0.071 |
| GUCCGA | 1.63 ± 0.024 | 1.78 ± 0.14 |
| GGGAGC | 1.625 ± 0.0022 | 1.76 ± 0.1 |
| GAGCCA | 1.79 ± 0.051 | 1.87 ± 0.1 |
| UGACUA | 1.665 ± 0.0041 | 1.78 ± 0.084 |
| GCCUGC | 1.78 ± 0.032 | 1.86 ± 0.097 |

| Variant | normalized RNA/DNA level without ligand (log10) (cyclic di-GMP [1]) | normalized RNA/DNA level with ligand (log10) (cyclic di-GMP [2]) |
| --- | --- | --- |
| GAUAGA | 1.46 ± 0.11 | 1.64 ± 0.094 |
| UUCUGG | 1.79 ± 0.04 | 1.89 ± 0.085 |
| UUCCGC | 1.771 ± 0.0064 | 1.89 ± 0.084 |
| CGAGUA | 1.7354 ± 0.0011 | 1.79 ± 0.11 |
| UUACGG | 1.82 ± 0.058 | 1.9 ± 0.094 |
| AGACAC | 1.68 ± 0.042 | 1.82 ± 0.1 |
| GAGACA | 1.8 ± 0.033 | 1.85 ± 0.088 |
| GCGUAC | 1.34 ± 0.086 | 1.52 ± 0.12 |
| ACUGGC | 1.61 ± 0.084 | 1.79 ± 0.12 |
| AUAGAG | 1.46 ± 0.13 | 1.73 ± 0.082 |
| AAAAAC | 1.61 ± 0.031 | 1.74 ± 0.13 |
| CUGGUA | 1.38 ± 0.086 | 1.59 ± 0.076 |
| GACAGC | 1.74 ± 0.087 | 1.87 ± 0.14 |
| AUUGCA | 1.67 ± 0.055 | 1.81 ± 0.095 |
| UUAUCA | 1.76 ± 0.11 | 1.91 ± 0.14 |
| UGUAUG | 1.75 ± 0.045 | 1.9 ± 0.13 |
| UCUGGC | 1.78 ± 0.025 | 1.88 ± 0.068 |
| GGUCCC | 1.83 ± 0.045 | 1.92 ± 0.11 |
| CAUUCU | 1.55 ± 0.07 | 1.73 ± 0.12 |
| UGAACU | 1.72 ± 0.052 | 1.86 ± 0.11 |
